Reference: patent publication EP4653461A1 (DE NOVO BIOTHERAPEUTICS CO., LTD., dated 2025)

Assays:
[1] = molecular target: T1, 6506GJ130-1A: Human NKP46 Recombinant Protein (His) (human, UniProt O76036 22-258, limits assumed); experiment: competition ELISA, NKp46-His coated; competitor 2-2 at 20 ug/ml
T1 construct: also called human NKp46 protein; not shown: His tag

[2] = molecular target: T1, 6506GJ130-1A: Human NKP46 Recombinant …; experiment: SPR, Biacore 8K, antibody captured on Protein A chip, NKp46 as analyte
[3] = molecular target: T1, 6506GJ130-1A: Human NKP46 Recombinant …; experiment: competition ELISA, NKp46-His coated; competitor 1-8 at 20 ug/ml
[4] = molecular target: T1, 6506GJ130-1A: Human NKP46 Recombinant …; experiment: competition ELISA, NKp46-His coated; competitor 2-5 at 20 ug/ml
[5] = molecular target: T1, 6506GJ130-1A: Human NKP46 Recombinant …; experiment: competition ELISA, NKp46-His coated; competitor 2-7 at 20 ug/ml
[6] = molecular target: T1, 6506GJ130-1A: Human NKP46 Recombinant …; experiment: competition ELISA, NKp46-His coated; competitor 2-3 at 20 ug/ml
[7] = molecular target: T1, 6506GJ130-1A: Human NKP46 Recombinant …; experiment: competition ELISA, NKp46-His coated; competitor 1-4-2 at 20 ug/ml
[8] = molecular target: T1, 6506GJ130-1A: Human NKP46 Recombinant …; experiment: competition ELISA, NKp46-His coated; competitor 2-1 at 20 ug/ml
[9] = molecular target: T1, 6506GJ130-1A: Human NKP46 Recombinant …; experiment: competition ELISA, NKp46-His coated; competitor 1-10 at 20 ug/ml
[10] = molecular target: T1, 6506GJ130-1A: Human NKP46 Recombinant …; experiment: competition ELISA, NKp46-His coated; competitor 2-10 at 20 ug/ml
[11] = molecular target: T1, 6506GJ130-1A: Human NKP46 Recombinant …; experiment: competition ELISA, NKp46-His coated; no competitor (Control)
[12] = molecular target: T1, 6506GJ130-1A: Human NKP46 Recombinant …; experiment: competition ELISA, NKp46-His coated; competitor 1-2 at 20 ug/ml

T1 sequence (O76036 22-258 limits assumed): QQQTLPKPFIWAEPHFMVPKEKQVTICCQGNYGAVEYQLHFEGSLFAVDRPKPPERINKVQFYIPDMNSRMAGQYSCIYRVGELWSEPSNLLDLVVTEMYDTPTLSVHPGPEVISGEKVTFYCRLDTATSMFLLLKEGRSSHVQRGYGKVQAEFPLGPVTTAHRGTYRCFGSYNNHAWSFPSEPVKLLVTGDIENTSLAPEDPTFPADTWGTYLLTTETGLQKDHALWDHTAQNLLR

Row | Binder | ELISA signal [1] | Kd [2] | koff [2] | kon [2] | ELISA signal [3] | ELISA signal [4] | ELISA signal [5] | ELISA signal [6] | ELISA signal [7] | ELISA signal [8] | ELISA signal [9] | ELISA signal [10] | ELISA signal [11] | ELISA signal [12]
1 | 32C9F4 (2-2) (antibody, IgG4, V domains shown, Hybridoma clone; made as mouse/human chimeric IgG4) VH: QVQLQQPGAELVKPGASVKLSCKASGYTFTSYWMHWVKQRPGQGLEWIGMIHPNSGVTKYNEKFKSKATLTVDKSSSTAYMQLSSLTSEDSAVYFCAGDGRFAYWGQGTLVTVSA VL: DIQMTQSPSSLSASLGERVSLTCRASQDIGSSLNWLQQEPDGTIKRLIYATSSLDSGVPKRFSGSRSGSDYSLTISSLESEDFVDYYCLQYASSPWTFGGGTKLEIK | 0.093 | 1.03 nM | 0.000542 s⁻¹ | 527000 M⁻¹ s⁻¹ | 1.37 | 1.2 | 0.098 | 0.092 | 0.931 | 0.241 | 0.159 | 0.096 | 1.34 | 1.05
2 | 45A10D5 (2-1) (antibody, IgG4, V domains shown, Hybridoma clone; made as mouse/human chimeric IgG4) VH: QVQLQQPGAELVKPGASVKLSCKASGYTFTSYWMHWVKQRPGQGLEWIGMIHPNSGSTNYNEKFKSKATLTVDKSSSTAYMQLSSLTSEDSAVYYCVYDGRFAYWGQGTLVTVSA VL: DIQMTQSPSSLSASLGERVSLTCRASQDIGSSLNWLQQEPDGTIKRLIYATSSLDSGVPKRFSGSRSGSDYSLTISSLESEDFVDYYCLQYASSPFTFGSGTKLEIK | 0.087 | 30 nM | 0.0113 s⁻¹ | 376000 M⁻¹ s⁻¹ | 1.6 | 1.32 | 0.077 | 0.093 | 0.658 | 0.097 | 0.087 | 0.1 | 1.63 | 1.12
3 | u6506gj130-1-8 (1-8) (antibody, IgG4, V domains shown, Beacon screening clone; made as mouse/human chimeric IgG4) VH: QVQLQQPGAELVRPGTSVKLSCKASGYTFTSYWMHWVKQRPGQGLEWIGVIDPSDSYTNYNQKFKGKATLTVDTSSSTAYMQLSSLTSEDSAVYYCARSSSAYYSNYEAYWGQGTLVTVSA VL: QIVLTQSPAIMSASPGEKVTISCSASSSVGYMFWYQQKPGSSPKPWIYRTSNLASGVPARFSGSGSGTSYSLTISSMEAEDAATYYCQQYHSYPPMWTFGGGTKLEIK | 1.43 | 11 nM | 0.00866 s⁻¹ | 790000 M⁻¹ s⁻¹ | 0.111 | 0.197 | 1.39 | 1.35 | 1.18 | 1.4 | 1.45 | 1.34 | 1.45 | 1.61
4 | u6506gj130-1-4-vk2 (1-4-2) (antibody, IgG4, V domains shown, Beacon screening clone; made as mouse/human chimeric IgG4) VH: DVQLQQSVAELVRPGASVNLSCTASGFNIKNTYMHWVKQRPEQGLEWIGMIDPANGNTKYAPKFQGKATITADTSSNTAYLHLSSLTSEDTAIYYCARWAYDGYYESYFDYWGQGTTLTVSS VL: SIVMTQSPKFLLVSAGDRVTITCKASQSVSNDVAWYQQKPGQSPKLLIYYASNRYTGVPDRFTGSGYGTDFTFTISTVQAEDLAVYFCHQDYSSPFTFGSGTKLEIK | 0.829 | 18.3 nM | 0.0038 s⁻¹ | 207000 M⁻¹ s⁻¹ | 1.24 | 0.852 | 0.686 | 0.785 | 0.082 | 0.764 | 0.662 | 0.691 | 1.44 | 0.1
5 | u6506gj130-1-10 (1-10) (antibody, IgG4, V domains shown, Beacon screening clone; made as mouse/human chimeric IgG4) VH: QVQLQQPGAELVKPGASVKLSCKASGYIFTSYWMHWVKQRPGQGLEWIGMIHPNSGSTNYNEKFKSKATLTVDKSSSTAYMQLSSLTSEDSAVYYCAREGNWARGYFEYWGQGTTLTVSS VL: DIKMTQSPSSMYASLGERVTITCKASQDINSYLSWFQQKPGKSPKTLIYRANRLVDGVPSRFSGSGSGQDYSLTISSLEYEDVGMYYCLQYDEFPYTFGGGTKLEIK | 0.086 | 9.34 nM | 0.00229 s⁻¹ | 246000 M⁻¹ s⁻¹ | 1.71 | 1.44 | 0.08 | 0.092 | 0.895 | 0.121 | 0.095 | 0.097 | 1.6 | 1.04
6 | 21C9E9 (2-5) (antibody, IgG4, V domains shown, Hybridoma clone; made as mouse/human chimeric IgG4) VH: DVQLQESGPGLVKTSQSLSLTCSVTGYSITSDDYWNWIRQFPGNKLEWVGYISYDGSNNYNPSLKNRISITRDTSKNQFFLKLNSVTTEDTATYYCARLGYPAMDSWGQGTSVTVSS VL: DIKMTQSPSSMYASLGERVTITCKASQDINSYLSWFQQKPGKSPKTLIYRANRLVDGVPSRFSGSGSGQDYSLTISSLEFEDLGIYYCLQYDEFPWTFGGGTKLEIK | 1.28 | 4.96 nM | 0.000116 s⁻¹ | 23400 M⁻¹ s⁻¹ | 1.29 | 0.201 | 1.33 | 1.27 | 0.612 | 1.28 | 1.4 | 1.3 | 1.31 | 1.3

The next lines start with the values.

Row | ELISA signal [1] | Kd [2] | koff [2] | kon [2] | ELISA signal [3] | ELISA signal [4] | ELISA signal [5] | ELISA signal [6] | ELISA signal [7] | ELISA signal [8] | ELISA signal [9] | ELISA signal [10] | ELISA signal [11] | ELISA signal [12] | Binder
7 | 0.088 | 2.78 nM | 0.00142 s⁻¹ | 511000 M⁻¹ s⁻¹ | 1.4 | 1.24 | 0.093 | 0.146 | 0.637 | 0.204 | 0.133 | 0.106 | 1.41 | 1.1 | 8A10C11 (2-7) (antibody, IgG4, V domains shown, Hybridoma clone; made as mouse/human chimeric IgG4) VH: QVQLQQPGAELVKPGASVKLSCKASGFTFTNYWMHWVKQRPGQGLEWIGMIHPNSGSTNYNEKFKSKATLTVDKSSSTAYMQLSSLTSEDSAVYYCAGGGRLDYWGQGTTLTVSS VL: DIQMTQSPSSLSASLGERVSLTCRASQDIGSSLNWLQQEPDGTIKRLIYATSSLDSGVPKRFSGSRSGSDYSLTISSLESEDFVDYYCLQYASSPFTFGSGTKLEIK
8 | 0.154 | 1.29 nM | 0.000615 s⁻¹ | 476000 M⁻¹ s⁻¹ | 1.3 | 1.13 | 0.123 | 0.091 | 0.724 | 0.245 | 0.176 | 0.083 | 1.27 | 0.998 | 8D5A6C1 (2-10) (antibody, IgG4, V domains shown, Hybridoma clone; made as mouse/human chimeric IgG4) VH: QVQLQQPGAELVKPGASVRLSCKAFGYTFTSYWMHWVKQRPGQGLEWIGMIHPNSGVTKYNEKFKSKATLTVDKSSSTAYMQLSSLTSEDSAVYFCAGDGRFAYWGQGTLVTVSA VL: DIQMTQSPSSLSASLGERVSLTCRASQDIGNSLNWLQQEPDGTIKRLIYATSSLDSGVPKRFSGSRSGSDYSLTISSLESEDFVDYYCLQYASSPWTFGGGTKLEIK
9 | 1.23 | 4.29 nM | 0.00012 s⁻¹ | 27900 M⁻¹ s⁻¹ | 1.63 | 1.46 | 1.15 | 1.28 | 0.178 | 1.24 | 1.19 | 1.24 | 1.54 | 0.1 | u6506gj130-1-2 (1-2) (antibody, IgG4, V domains shown, Beacon screening clone; made as mouse/human chimeric IgG4 (mouse variable regions, human constant region)) VH: EVQLQQSGPELVKPGASVKISCQASGYTFTDYYLNWVKQSHGKSLEWIGDIDPHNGGTSYNQKFKDKATLTVDKSSSTAYMELRSLTSEDSAVYYCARFPIYYSGSSPMDYWGQGTSVTVSS VL: DIQMTQSPASLSASVGETVTITCRTNENIFSYLAWYQQKQGKSPQLLVYNAKTLAEGVPSRFSGSASGTQFSLKINTLQPEDFGSYYCQHHYGTPYTFGGGTKLEII
